Data from patent US20090075297A1 (SCHERING, published 2009).
No end group written: not given here.

Key:
rat GalR3 receptor [1] = target: T1, rat GalR3 receptor (rat, UniProt O88626 1-370); experiment: radioligand binding to membranes of COS-7 cells transfected with rat GalR3
T1 construct: Full-length receptor (370 amino acids) expressed from pCR3.1 in COS-7 cells; The assay used membrane preparations of the transfected cells; also called rat type 3 galanin receptor; cellular receptors
T1 chain: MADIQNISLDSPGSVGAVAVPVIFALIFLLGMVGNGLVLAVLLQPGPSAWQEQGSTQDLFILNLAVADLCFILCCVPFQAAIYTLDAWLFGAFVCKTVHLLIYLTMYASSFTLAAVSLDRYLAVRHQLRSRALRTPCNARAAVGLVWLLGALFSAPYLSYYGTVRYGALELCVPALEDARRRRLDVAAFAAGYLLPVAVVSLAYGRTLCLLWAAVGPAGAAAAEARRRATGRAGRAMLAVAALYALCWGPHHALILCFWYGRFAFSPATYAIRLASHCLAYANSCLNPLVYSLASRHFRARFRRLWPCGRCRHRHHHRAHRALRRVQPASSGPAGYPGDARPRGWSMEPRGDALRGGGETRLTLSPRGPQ
Method: (§1) Binding of ¹²⁵I-porcine-galanin to the membrane preparations was performed in a buffer containing 25 mM Tris-Cl (pH7.4), 1% bovine serum albumin (w/v), 0.1% bacitracin, 2 μg/ml leupeptin and 10 mM MgCl₂. Ligand saturation plots were performed using 20 μg amounts of the membrane protein in a total volume of 200 μl using 3 μM cold galanin to determine nonspecific binding. Peptide competition studies were performed in a total volume of 200 μl, containing 20 μg of membrane protein and 0.3 nM ¹²⁵I-porcine galanin. Incubations were carried out at room temperature for 1 hour and were terminated by rapid vacuum filtration through MULTISCREEN FB (glass fiber B) Filter Plates (Millipore, Bedford, Mass.) which had been pre-treated with 0.30% polyethylenimine to prevent non-specific binding of the radioligand to the filter. The filters were then washed three times with 100 μl of PBS (pH7.4). All data were analyzed using non-linear regression software (Prism, GraphPad, San Diego, Calif.), and the Ki was calculated using the method of Cheng and Prusoff [Biochem. Pharmacol. 22:3099-3108 (1973)].

rat GalR3 receptor [2] = target: T1, rat GalR3 receptor; experiment: competition with 0.3 nM 125I-porcine galanin on membranes of COS-7 cells transfected with rat GalR3; filtration; Cheng-Prusoff
Method: as §1
The curves shown indicate the fits of the data points by nonlinear regression for one-site binding.

B1: 125I-porcine galanin (ligand, UniProt P07480 33-61, looked up)
peptide: GWTLNSAGYLLGPHAIDNHRSFHDKYGLA
modifications: ends and bridges not checked; also: 125I radiolabel, residue not given here
notes: Bought radioligand; also called labeled galanin
B1: binds (rat GalR3 receptor [1]).

B2: rat galanin(2-29) (peptide, UniProt P10683 34-61, looked up)
peptide: WTLNSAGYLLGPHAIDNHRSFSDKHGLT
notes: range 2-29; also called Rat galanin 92-29
For B2, the Ki (rat GalR3 receptor [2]) was 14 nM.

With TLNSAGYLLGPHAIDNHRSFSDKHGLT (peptide, UniProt P10683 35-61, looked up, range 3-29) [rat galanin(3-29)] the Ki (rat GalR3 receptor [2]) was over 1000 nM.

Binder GWTLNSAGYLLGPHAIDNHRSFSDKHGLT (ligand, UniProt P10683 33-61, looked up, also called galanin itself) [rat galanin] has a Ki (rat GalR3 receptor [2]) of 1.2 nM.

LLGPHAIDNHR [galanin(10-20)] showed a Ki (rat GalR3 receptor [2]) of over 1000 nM.
